Entries after “also recorded” stand apart in the source; their conditions may differ. Marks after values point to notes of the source that are not given here.
B1: WW323SR (CR6): EBNA2 with tryptophans 323 and 324 in CR6 changed to SR (protein)
chain: MPTFYLALHGGQTYHLIVDTDSLGNPSLSVIPSNPYQEQLSDTPLIPLTIFVGENTGVPPPLPPPPPPPPPPPPPPPPPPPPPPPPPPSPPPPPPPPPPPQRRDAWTQEPSPLDRDPLGYDVGHGPLASAMRMLWMANYIVRQSRGDRGLILPQGPQTAPQARLVQPHVPPLRPTAPTILSPLSQPRLTPPQPLMMPPRPTPPTPLPPATLTVPPRPTRPTTLPPTPLLTVLQRPTELQPTPSPPRMHLPVLHVPDQSMHPLTHQSTPNDPDSPEPRSPTVFYNIPPMPLPPSQLPPPAAPAQPPPGVINDQQLHHLPSGPPSRPPICDPPQPSKTQGQSRGQSRGRGRGRGRGRGKGKSRDKQRKPGGPWRPEPNTSSPSMPELSPVLGLHQGQGAGDSPTPGPSNAAPVCRNSHTATPNVSPIHEPESHNSPEAPILFPDDWYPPSIDPADLDESWDYIFETTESPSSDEDYVEGPSKRPRPSIQ
B2: PI326SR (CR6): EBNA2 with PI at 326 in CR6 changed to SR (protein)
chain: MPTFYLALHGGQTYHLIVDTDSLGNPSLSVIPSNPYQEQLSDTPLIPLTIFVGENTGVPPPLPPPPPPPPPPPPPPPPPPPPPPPPPPSPPPPPPPPPPPQRRDAWTQEPSPLDRDPLGYDVGHGPLASAMRMLWMANYIVRQSRGDRGLILPQGPQTAPQARLVQPHVPPLRPTAPTILSPLSQPRLTPPQPLMMPPRPTPPTPLPPATLTVPPRPTRPTTLPPTPLLTVLQRPTELQPTPSPPRMHLPVLHVPDQSMHPLTHQSTPNDPDSPEPRSPTVFYNIPPMPLPPSQLPPPAAPAQPPPGVINDQQLHHLPSGPPWWPSRCDPPQPSKTQGQSRGQSRGRGRGRGRGRGKGKSRDKQRKPGGPWRPEPNTSSPSMPELSPVLGLHQGQGAGDSPTPGPSNAAPVCRNSHTATPNVSPIHEPESHNSPEAPILFPDDWYPPSIDPADLDESWDYIFETTESPSSDEDYVEGPSKRPRPSIQ
B3: GP320SR (CR6): EBNA2 with two non-hydrophobic residues GP at 320 in CR6 changed to SR (protein)
chain: MPTFYLALHGGQTYHLIVDTDSLGNPSLSVIPSNPYQEQLSDTPLIPLTIFVGENTGVPPPLPPPPPPPPPPPPPPPPPPPPPPPPPPSPPPPPPPPPPPQRRDAWTQEPSPLDRDPLGYDVGHGPLASAMRMLWMANYIVRQSRGDRGLILPQGPQTAPQARLVQPHVPPLRPTAPTILSPLSQPRLTPPQPLMMPPRPTPPTPLPPATLTVPPRPTRPTTLPPTPLLTVLQRPTELQPTPSPPRMHLPVLHVPDQSMHPLTHQSTPNDPDSPEPRSPTVFYNIPPMPLPPSQLPPPAAPAQPPPGVINDQQLHHLPSSRPWWPPICDPPQPSKTQGQSRGQSRGRGRGRGRGRGKGKSRDKQRKPGGPWRPEPNTSSPSMPELSPVLGLHQGQGAGDSPTPGPSNAAPVCRNSHTATPNVSPIHEPESHNSPEAPILFPDDWYPPSIDPADLDESWDYIFETTESPSSDEDYVEGPSKRPRPSIQ
B4: del344-357: EBNA2 with glycine-arginine repeats removed by deletion of amino acids 344-357 (protein)
chain: MPTFYLALHGGQTYHLIVDTDSLGNPSLSVIPSNPYQEQLSDTPLIPLTIFVGENTGVPPPLPPPPPPPPPPPPPPPPPPPPPPPPPPSPPPPPPPPPPPQRRDAWTQEPSPLDRDPLGYDVGHGPLASAMRMLWMANYIVRQSRGDRGLILPQGPQTAPQARLVQPHVPPLRPTAPTILSPLSQPRLTPPQPLMMPPRPTPPTPLPPATLTVPPRPTRPTTLPPTPLLTVLQRPTELQPTPSPPRMHLPVLHVPDQSMHPLTHQSTPNDPDSPEPRSPTVFYNIPPMPLPPSQLPPPAAPAQPPPGVINDQQLHHLPSGPPWWPPICDPPQPSKTQGQSRGQGKSRDKQRKPGGPWRPEPNTSSPSMPELSPVLGLHQGQGAGDSPTPGPSNAAPVCRNSHTATPNVSPIHEPESHNSPEAPILFPDDWYPPSIDPADLDESWDYIFETTESPSSDEDYVEGPSKRPRPSIQ
B5: type B EBNA2 comprising amino acids 216-392: homologous CBF1 interaction domain of human type B EBNA2, in vitro translated (protein)
chain: GHQLSLPPHPPPHQSTPHCSSDSTGLPPPPTSYSIPSMTLSPEPLPPPAAPAHPLPGVIYDQQALPPTPGPPWWPPVRDPTPTTQTPPTNTKQGPDQGQGRGRWRGRGRSKGRGRMHKLPEPRRPGPDTSSPSMPQLSPVVSLHQGQGPENSPTPGPSTAGPVCRVTPSATPDISPI

Experiments:
[1] = biological target: T1, CBF1/RBPJk (Homo sapiens, UniProt Q06330); experiment: EMSA of EBNA2/CBF1 complex formation with in vitro translated EBNA2 peptides; assay type: binding; settings: for behaviour in EMSA (competition for CBF1 complex, formation of supershifted EBNA2/CBF1 complex): equimolar in vitro translated peptides, Cp CBF1 binding site probe
T1 construct: EMSA using CBF1 purified by heparin-agarose chromatography; endogenous in cells; host or cells: CA46 cells (fractionated extract, heparin-agarose)
Excerpt: FIG. 3 is an autoradiogram that depicts the effect of mutations on the ability of an EBNA2 (i.e., E2) peptide comprising amino acids 252-425 to interact with CBF1/RBPJk: probe (lane 1); E2 only (lane 2); lysate (lane 3); CBF1 (lane 4); CBF1 and lysate (lane 5); CBF1 and E2 252-425 (lane 6); CBF1 and del376-425 (lane 7); CBF1 and del343-425 (lane 8); CBF1 and del252-366 (lane 9); CBF1 and del252-309, del398-425 (lane 10); CBF1 and del344-357 (lane 11); CBF1 and II307SR (CR5) (lane 12); CBF1 and GP320SR (CR6) (lane 13); CBF1 and WW323SR (CR6) (lane 14); CBF1 and PI326SR (CR6) (lane 15); CBF1 and SR360VD (PKC) (lane 16); and CBF1 and LGL389SRT (CR7) (lane 17). Results of an EMSA using CBF1 purified by heparin-agarose chromatography and a 30-base pair oligonucleotide probe containing the Cp CBF1 binding site (Ling et al. (1993a), supra) are shown. The wild-type EBNA2 and mutant EBNA2 peptides spanning amino acids 252-425 were in vitro transcribed and translated, and equimolar amounts were added to the binding reactions. Addition of unprogrammed reticulocyte lysate to the CBF1 extract (+lysate) produced a minor bandshift that migrated in the range of the E2/CBF1 complex. The EBNA2/CBF1 complexes (i.e., E2/CBF1 complexes) vary in mobility depending on the size of the added EBNA2 peptide.
FIG. 6 is an EMSA that compares the ability of type A EBNA2 (i.e., EBNA2 comprising amino acids 252-425) and the homologous domains of type B (i.e., EBNA2 comprising amino acids 216-392) and HVP EBNA2 (i.e., HBP EBNA2 comprising amino acids 288-470) to form complexes with CBF1/RBPJk. The EBNA2 peptides and CBF1/RPBPJk were prepared by in vitro transcription and translation. EBNA2 peptides were added with two-fold increases in amount (black triangles) to a binding mixture containing a constant amount of CBF1/RBPJk and a 30-base pair Cp CBF1 binding site probe. Symbols: P, probe only; R, reticulolysate.
The relative positions of the various functional domains the EBNA2 protein are depicted in FIG. 1. To define the amino acids required for interaction with CBF1, various synthetic peptides comprising the promoter targeting domain (i.e., the CBF1/RBPJk interaction domain) were constructed. The truncated and mutated peptides diagrammed in FIG. 2 were synthesized by in vitro transcription-translation, and were tested for their ability to form complexes with CBF1 that could be detected in an electrophoretic mobility shift assay (EMSA) (Ling et al., J. Virol., 69, 1944-1950 (1995)). The expressed peptides were tested using a fractionated extract of EBV negative lymphoblastoid CA46 cells (American Type Culture Collection, Rockville, Md.). The peptides were labeled with ^35S-methionine, and their integrity was confirmed by sodium dodecylsulfate sulfate-polyacrylamide gel electrophoresis (SDS-PAGE). To ensure that equal amounts of the EBNA2 peptides were added to each binding reaction mixture, the SDS-PAGE bands were quantitated using a Molecular Dynamics Phosphorimager, and the volume of the samples was adjusted on the basis of peptide size and the number of methionine residues.

[2] = test system: EBV latency C promoter (Cp-CAT); experiment: Cp-CAT transactivation by EBNA2 effector DNAs cotransfected in DG75 cells; assay type: cell-based, Epstein-Barr virus; settings: for transactivation of Cp-CAT, dose-response, in words: 0-2.0 μg effector DNA, 2 μg target; for % Transactivation: relative EBNA2 transactivation of the Cp, at DNA concentrations giving 50% acetylation for wild-type EBNA2, mutations in full-length EBNA2
Description: FIGS. 4A-4B are graphs that depict μg effector versus % acetylation for transactivation in DG75 cells of a Cp-CAT construction (Ling et al. (1993b), supra) cotransfected at 2 μg with increasing amounts (i.e., 0, 0.25, 0.5, 1.0 and 2.0 μg) of the indicated EBNA2 effector DNAs. Immunoblot analysis confirmed the equivalent expression of the different EBNA2 effector constructions in transfected cells.
FIGS. 7A-7B are graphs that depict μg effector versus fold-induction for cotransfection assays comparing the ability of type A EBNA2 and type B EBNA2 to transactivate expression from Cp-CAT (FIG. 7A) and CD23p-CAT (FIG. 7B) (Ling et al. (1994), supra) in DG75 cells. The target plasmids were transfected at a constant amount (2 μg) and the effector DNAs at increasing amounts of 0, 0.25, 0.5, 1.0 and 2.0 μg.
In order to correlate the effect of the mutations on CBF1 interaction measured in the in vitro binding assays with the effects on CBF1 interaction in vivo in cultured cells, the point mutations and the glycine-arginine deletion were incorporated into full-length EBNA2 proteins which were used to study EBNA2 targeting in transactivation assays. The mutant proteins were synthesized in equal abundance in transfected cells as assessed by Western blot analysis. FIGS. 4A and 4B compare the ability of wild-type and mutant EBNA2 proteins to transactivate expression from the EBV latency C promoter in a dose-response assay (Ling et al. (1993b), supra).

[3] = linear range of the assay, 0.5 μg effector DNA

T1 sequence (Q06330 whole entry): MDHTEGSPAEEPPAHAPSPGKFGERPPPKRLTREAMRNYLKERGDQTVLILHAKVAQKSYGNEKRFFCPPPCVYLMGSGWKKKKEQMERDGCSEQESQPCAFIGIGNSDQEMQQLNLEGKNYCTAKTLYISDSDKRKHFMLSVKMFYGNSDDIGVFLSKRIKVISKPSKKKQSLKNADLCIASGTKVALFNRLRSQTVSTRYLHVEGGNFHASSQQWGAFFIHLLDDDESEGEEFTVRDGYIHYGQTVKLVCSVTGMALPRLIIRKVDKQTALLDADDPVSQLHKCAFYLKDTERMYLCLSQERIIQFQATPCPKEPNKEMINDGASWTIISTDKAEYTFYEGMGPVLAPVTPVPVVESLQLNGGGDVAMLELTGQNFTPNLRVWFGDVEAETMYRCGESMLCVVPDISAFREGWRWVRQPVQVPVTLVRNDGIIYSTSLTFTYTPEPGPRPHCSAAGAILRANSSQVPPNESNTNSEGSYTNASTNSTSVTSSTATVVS

Row | Molecule | behaviour in EMSA (competition for CBF1 complex, formation of supershifted EBNA2/CBF1 complex) [1] | transactivation of Cp-CAT, dose-response, in words [2] | % Transactivation [2] | transactivation of Cp-CAT relative to wild-type EBNA2 ([2]; highest levels of effector DNA) | transactivation of Cp-CAT relative to wild-type EBNA2 [2, 3] | % Complex formation ([1]; EBNA2/CBF1 supershifted complex relative to wild-type EBNA2(252-425), phosphoimager, reticulocyte lysate background subtracted) | behaviour in EMSA (competition for CBF1 complex, formation of supershifted EBNA2/CBF1 complex) ([1]; listed as glycine-arginine deletion) | amount of peptide required to convert all the CBF1 to the supershifted complex, versus type A EBNA2 ([1]; in vitro translated CBF1/RBPJk, two-fold increases of peptide)
1 | B1 | did not compete for the CBF1 complex and produced little or no EBNA2/CBF1 supershifted complex | inability of this mutant to transactivate the Cp even at high doses of effector | 0% |  |  |  |  | 
2 | B2 | did not compete for the CBF1 complex and produced little or no EBNA2/CBF1 supershifted complex; also recorded: severely impaired the ability of the peptide to form a complex with CBF1 in an EMSA |  | 2^c % | 20% | 2% |  |  | 
3 | B3 | had no effect on the behavior of the peptide in the EMSA | mirrored that of wild-type EBNA2 | 120% |  |  |  |  | 
4 | B4 | did not negatively affect EBNA2/CBF1 complex formation |  | 150% |  | 150% | 100% | did not negatively affect complex formation in the EMSA | 
5 | B5 | bound CBF1 comparably to type A EBNA2 |  |  |  |  |  |  | two-fold more

From patent US6495144B2, “EBNA2 peptides and methods of using same” (Johns Hopkins University School of Medicine, priority 1996, dated 2002)
